Laboratory results as given in paper PMC4589357, “The Role of Electrostatic Interactions in Binding of Histone H3K4me2/3 to the Sgf29 Tandem Tudor Domain” (PLoS ONE, 2015).
No end group written: not given here. Me3 = trimethyl (on lysine, trimethyllysine)

Key:
Assay in all cases: ITC; peptide (generally 1.2 mM) titrated to protein (100 uM); for variants of low affinity 2.4 mM peptide to 200 uM protein; 25 mM TRIS pH 8.0, 50 mM NaCl, 1 mM DTT; one-site model
Conditions in all cases: both partners purified
[1] = target: T1, Wild-type Sgf29 (SAGA-associated Factor 29) tandem tudor domain, residues 115-293 (human, UniProt Q96ES7 115-293)
T1 construct: also called WT Sgf29; WT; source: E. coli Rosetta BL21 DE3 PlysS, purified (Ni-NTA, TEV cleavage, SEC Superdex 75)
T1 sequence (looked up): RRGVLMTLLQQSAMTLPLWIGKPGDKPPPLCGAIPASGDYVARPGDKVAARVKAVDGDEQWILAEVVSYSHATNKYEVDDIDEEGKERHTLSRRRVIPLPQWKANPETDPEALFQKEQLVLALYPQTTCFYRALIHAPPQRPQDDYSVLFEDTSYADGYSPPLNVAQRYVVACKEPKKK

[2] = target: T2, Sgf29 D266E variant, residues 115-293 (human, UniProt Q96ES7 115-293, D266E)
T2 construct: source: E. coli Rosetta BL21 DE3 PlysS, purified (Ni-NTA, TEV cleavage, SEC Superdex 75)
T2 sequence (looked up): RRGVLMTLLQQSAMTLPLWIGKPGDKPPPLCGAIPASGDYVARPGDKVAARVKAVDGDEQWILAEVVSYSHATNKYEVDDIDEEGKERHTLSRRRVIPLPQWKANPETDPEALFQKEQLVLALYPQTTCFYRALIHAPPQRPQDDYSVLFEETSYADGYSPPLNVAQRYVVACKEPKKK

[3] = target: T3, Sgf29 D266A variant, residues 115-293 (human, UniProt Q96ES7 115-293, D266A)
T3 construct: source: E. coli Rosetta BL21 DE3 PlysS, purified (Ni-NTA, TEV cleavage, SEC Superdex 75)
T3 sequence (looked up): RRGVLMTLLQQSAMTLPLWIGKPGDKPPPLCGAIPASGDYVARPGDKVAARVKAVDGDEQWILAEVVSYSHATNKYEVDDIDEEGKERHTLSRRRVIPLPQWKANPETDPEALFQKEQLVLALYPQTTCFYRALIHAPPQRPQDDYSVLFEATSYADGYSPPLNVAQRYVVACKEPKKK

[4] = target: T4, Sgf29 D266N variant, residues 115-293 (human, UniProt Q96ES7 115-293, D266N)
T4 construct: source: E. coli Rosetta BL21 DE3 PlysS, purified (Ni-NTA, TEV cleavage, SEC Superdex 75)
T4 sequence (looked up): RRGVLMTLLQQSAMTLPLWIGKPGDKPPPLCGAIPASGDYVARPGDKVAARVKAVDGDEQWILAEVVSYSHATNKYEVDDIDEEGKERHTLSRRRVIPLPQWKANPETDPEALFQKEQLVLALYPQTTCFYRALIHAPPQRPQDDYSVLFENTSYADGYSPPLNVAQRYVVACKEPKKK

[5] = target: T5, Sgf29 D266W variant, residues 115-293 (human, UniProt Q96ES7 115-293, D266W)
T5 construct: source: E. coli Rosetta BL21 DE3 PlysS, purified (Ni-NTA, TEV cleavage, SEC Superdex 75)
T5 sequence (looked up): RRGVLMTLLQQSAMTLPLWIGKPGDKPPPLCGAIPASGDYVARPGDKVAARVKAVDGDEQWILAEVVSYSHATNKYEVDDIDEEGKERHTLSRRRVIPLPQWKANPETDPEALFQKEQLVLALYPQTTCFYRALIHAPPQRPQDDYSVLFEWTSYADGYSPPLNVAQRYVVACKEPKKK

[6] = target: T6, Sgf29 D266Y variant, residues 115-293 (human, UniProt Q96ES7 115-293, D266Y)
T6 construct: source: E. coli Rosetta BL21 DE3 PlysS, purified (Ni-NTA, TEV cleavage, SEC Superdex 75)
T6 sequence (looked up): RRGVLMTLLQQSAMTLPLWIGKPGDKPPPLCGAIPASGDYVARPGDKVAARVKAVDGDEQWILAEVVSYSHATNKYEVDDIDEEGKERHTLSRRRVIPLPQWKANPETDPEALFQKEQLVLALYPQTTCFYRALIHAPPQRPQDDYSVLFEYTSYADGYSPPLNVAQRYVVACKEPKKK

[7] = target: T7, Sgf29 D266F variant, residues 115-293 (human, UniProt Q96ES7 115-293, D266F)
T7 construct: source: E. coli Rosetta BL21 DE3 PlysS, purified (Ni-NTA, TEV cleavage, SEC Superdex 75)
T7 sequence (looked up): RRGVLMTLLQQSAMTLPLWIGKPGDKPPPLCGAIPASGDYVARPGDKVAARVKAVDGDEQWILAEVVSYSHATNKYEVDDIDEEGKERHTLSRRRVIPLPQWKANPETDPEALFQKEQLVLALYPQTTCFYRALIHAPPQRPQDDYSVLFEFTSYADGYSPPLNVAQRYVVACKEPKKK

[8] = target: T8, Sgf29 Y238F variant, residues 115-293 (human, UniProt Q96ES7 115-293, Y238F)
T8 construct: source: E. coli Rosetta BL21 DE3 PlysS, purified (Ni-NTA, TEV cleavage, SEC Superdex 75)
T8 sequence (looked up): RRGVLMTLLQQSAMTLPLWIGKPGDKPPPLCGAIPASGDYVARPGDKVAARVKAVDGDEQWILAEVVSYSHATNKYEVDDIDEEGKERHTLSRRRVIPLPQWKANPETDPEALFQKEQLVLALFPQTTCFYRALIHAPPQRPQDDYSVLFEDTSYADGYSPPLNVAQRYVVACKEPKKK

[9] = target: T9, Sgf29 Y245F variant, residues 115-293 (human, UniProt Q96ES7 115-293, Y245F)
T9 construct: source: E. coli Rosetta BL21 DE3 PlysS, purified (Ni-NTA, TEV cleavage, SEC Superdex 75)
T9 sequence (looked up): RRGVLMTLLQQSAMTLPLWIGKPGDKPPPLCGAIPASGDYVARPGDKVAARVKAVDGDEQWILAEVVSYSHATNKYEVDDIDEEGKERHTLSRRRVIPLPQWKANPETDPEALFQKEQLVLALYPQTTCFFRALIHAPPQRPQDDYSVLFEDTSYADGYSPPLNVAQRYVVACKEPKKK

- Kd [1]: 3.1 µM
- dH [1]: -8.1 kcal/mol
- Kd [2]: 3.9 µM
- dH [2]: -9 kcal/mol
- Kd [3]: 25 µM
- dH [3]: -6.4 kcal/mol
- Kd [4]: 25 µM
- dH [4]: -6.2 kcal/mol
- Kd [5]: > 200 µM
- Kd [6]: 28 µM
- dH [6]: -4.8 kcal/mol
- Kd [7]: 44 µM
- dH [7]: -3.4 kcal/mol
- Kd [8]: 3.5 µM
- dH [8]: -8.1 kcal/mol
- Kd [9]: 14 µM
- dH [9]: -5.9 kcal/mol
B1: 10-mer histone 3 peptide H3K4me3 (ARTKme3QTARKS) (peptide)
peptide: ARTK(Me3)QTARKS-OH
notes: histone H3 N-terminal tail, 10-mer, K4 trimethylated; also called native 10-mer peptide; source: synthetic peptide (manual Fmoc solid-phase synthesis, preparative HPLC)
